Data published in the supplement of paper PMC9170038.

Test system: K4 kissing-loop RNA reporter
Test: apparent KD of K4 kissing-loop reporter; higher = weaker reporter binding
Details: Eterna round: R107; input ligand: FMN 200 uM
Method: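 RNA-MaP round R107: designed RNA switches with theophylline, tryptophan, arginine or FMN aptamers are transcribed on-chip within common flanks. They are titrated with a labelled K4 kissing-loop RNA reporter in RNA-MaP buffer (100 mM Tris pH 7.5, 80 mM KCl, 4 mM MgCl2), without ligand or with the indicated ligand. Median apparent KD per design.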
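Note: bound reporter read as fluorescence of individual clusters on recovered sequencing chips by microscopy, with normalized cluster intensities fitted with a binding model.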

Sequence	apparent KD of K4 kissing-loop reporter [nM]
CUGACGCUGAUACGGUGGCCGCUGGUCGUGCGAGGACCGGUACGGCCGCCACUCGCAUGAGUGAUGUUCAUGUGUCGUCGUCGUC [#07 K4 Tryptophan A Exclusion]	122
CAACAGCUUACGGCCGCCACUCCUUUAUAUGGUGCGCACCGUUGAGCUCUAGUGAUGUUGGUGCCGAGGACCGGGUAGGAAAGUA [theeternabot_sameState_KL_Trp_B_31]	468
CUUGAUGGAAACAUCGAGUAUUUCACUGAUACCAGUAUCGAUAGAUACCCUUGGCAGCAGGAUCAGUGUUUACGAGUGAUGUUCG [Ex Theophylline A K4 9]	444
AAACAUUGGUCUGAUACCAGCUGAUCGGAAACGAUCUUGCUGGAGUGAUGUUCCAAGUAAAGCCCUUGGCAGCAGACCGAUGAAA [MAT - Same State Theophlline B - Mod of Eli - D19]	108
GGUCGCCUGAGCAGUGAUGUUGCAAGGGAAGGAGCGCGUUUUUUCGCAGGUAGGUCGCCCAAAUAAUAAGUUAAACUAGGCGACC [4.)]	221
AAAUAGAUCAGUCAUCCAGUGAUGUUGGAAGGAGCGUGCGAAAGCACAGGUAGGUCGCCGAAAUAAAAGUGGCUGAUCAAAAUAA	128
CCAGUGAUAAACGAUACCAGAAAUACCUUAUUUGGCCGGCGGAGUGAUGUUCCUAAUACUUUCCCUUGGCAGCGUCGAAUGCUAG [theeternabot_sameState_KL_Theo_B_16]	43.8
GUUUGGCGGACGGCCGCCACUCGGACGAGUCACAGUGAUGUUGUGGUUUGCCAGUCGACUUCAUCGAGGACCGGGUUUGUCGGGC [Exclusion Tryptophan B GF 20]	363
GUAUAUCGAACUGAUACCAGAGAAUAUAGCAGUGAUGUUGCAUAUAUGAAUAAGACUCGACUCCCUUGGCAGCGGGAAGAUAUAC [On purpose 2]	132
AGUUAUGUUGCGGCCGCCACUGCGCGAGUGAUGUUCGUGGCAUAUAUAAUGUUAUAUAUGCAUCACAGGACCGGGCGGCAUAGCG [Same State - Tryptophan B]	512
UAGGAGUGAUGUUCCAUAUCUUGAGCCGAAGGAGCGGCAUUAUAGCCAGGUAGGUCGCGGCAGAAGGUACCAGUGAUGUUGGAAA [Same State Arginine A GF5]	182
UGGAGUUGACGAAGAGUCAACUCCUGAGAUACCAGUGACGAAAGUCACCCUUGGCAGCUCUCUGCCAGUGAUGUUGGUUUAUAAG [#07 K4 Theophylline A Same State]	139
UGUACCGAAUCAGGAUAUGUCGUCGAAAGACGAAAUGGAGUGAUGUUCCUUAAACUGCGAAAGCAGACAGAAGGGAUUUGGUACU [FmnBS 29 A9+U77]	161
CCUGCAGCUGUUACCGAGGGAUGCUACGGACGAGGACCGGUACGGCCGCCACUCGCCAGUGAUGUUGGUGAGGGAGGACGUUACU [KL-XTryp-A21]	137
UGAUGUUUAGGUCACCCAGUGAUGUUGGAAGGAGCGUGCGAAAGCACAGGUAGGUCGCCAACCUAAAAGUGACCUGAGCAUCUAA [#SwitchBubble 8 #K4Early]	496
UCCUAGGCUCGAAAGAGCCUAGGAUUUACUCAGGAUAUCCGGAAACGGAGAAGGGAGUAACUAGUGAUGUUAGGGAUUCCCUAUU	552
GUACCUUGGAAACAAGGACAGCUAACCGAAGGAGCGCGUGAAAACGCAGGUAGGUCGCGGUAGCGGAGUGAUGUUCCGCGAGAGC [Same State Arginine A GF 19]	114
UGAUACCAGACGGCCGCCACUCCUGCAGUCAAAGACUGCAAGGAAAUAUUCGUCCAGUGAUGUUGGAGGACCGGGUCUGGUAUCU [TrypBX 9 #SwitchBubble #Palindromic #StaticStem]	921
CCGGGCGGCUGAAGGAGCGGGCGGGCCCGAGUGAUGUUCGGGUGGACCGUGAGGUCCGGUGCCCAGGUAGGUCGCGGUUCCGCCC [#2 Same State - Arginine B Attempt #8 (HarryS)]	247
GGCCGAAGAGAAGGAUAUGGUUUCACGCGUCGUUAGUGAUGUUAAUGCGCAUGCCUUAGUAUAGAGCCAGAAGGUCUGGUCAGAA [theeternabot_sameState_KL_FMN_B_34]	170
CCAUCGCUAUUCGAUACCAGCUACUUAGUGAUGUUAAGUUAAAAUCAAUUGUAGAUUGAAAGCCCUUGGCAGCGAAUAGUGAUGG [Theophylline B K4 21]	157

Sequence	apparent KD of K4 kissing-loop reporter [nM]
UGAUAGGACAGAAGGAGCGGUAGUGAUGUUGCCAAAAGGGUAAGGUGUCAAAAGACACCCUACCAGGUAGGUCGCUGUCCUAUCU	83.9
CCAACAACGAGUGAUGUUCGUUGAUCAGAAGGAGCGUCAAUAAUGACAGGUAGGUCGCUGAUAAUUGGAAAUAGGGCAAUAGCUU [Same State Arginine A GF12]	110
AUGUACACGAUAGUGUACUCCUAGUGAUGUUAGGAUAUGCAGAUAUGCAGAAGGAACAAGUCAUCUGACAAUAGUCGGAUGACAA [FmnAX 9 #OpenEnded #K4Early]	388
ACGUGAAGCGACUCCUAGUUAAACCGGGAAGGAGCGCGGAUAACCGCAGGUAGGUCGCCCGGAAGCCGGACCAGUGAUGUUGGUC [Exclusion Arginine A Gf 26]	263
GGAUAGGACAGAGGAUAUCCUAAAGAGGCAAGAAUAACUUGUCUCAAAUGGAUGACCAGUGAUGUUGGAGAAGGCUGUCCUAUCG [FmnBX 6 - #SwitchBubble #StaticStem]	406
GGGAGUAGUGCGGCCGCCACUGAGAAAGAAGAAGAAUAUAGUGAUGUUAUAUAGGAAGGGAAGAAUAGGACCGGGCAUUAGAUUU [SSTRyptB.Z]	336
UGAUACCAGACUGAUACCAGCCAGUGAUGUUGGCUAAUCCAAGAAGGAGUCAAAGACUCCGGCCCUUGGCAGCAGUCUGGUAUCU [TheoBX 3 #SwitchBubble #StaticStem]	117
GCCGUACGCAUGGAUACCAGCGCUCGUCACCUAGCAGUGAUGUUGCUAAUGCCACGAGGACGCCCUUGGCAGCCAUGCGUACGGC	116
CGCAAAUCGUCGGCCGCCACUGCAUUUGAACGCUAAUUGUCUCUGCGCGGAGUGAUGUUCUGUGCCAGGACCGGGACGGAUUUCG [theeternabot_exclusion_KL_Trp_B_21]	446
GGAUAGGACAAAGGAUAUGGGCUAGGCAAGAAUAACUUGUCUAGCAAAUCCAUGAGGAGUGAUGUUCCAGAAGGUUGUCCUAUCG [FmnBX 1 A11+U75]	624
UUCUACGAGUGAUGUUCGUAGUGUAUUCGCUAGGAUAUCGUUUUUUCGAGAAGGAGUGAUGAAGUGAUACGAAAGUAUCGCUUCU [FMN A 14]	223
UGUAUGUGUCAGCGAGUGAUGUUCGACGAUACCAGACUCGAUAGAGUCCCUUGGCAGCGUAAUGCAUGCCAACUGGCACAUACUA [#SwitchBubble 12 #K4Early]	745
AAUGAUCGUAUGGCGAGGUACUCGUGUUCGAAGGAUAUUAAUAGAAUAAGAAGGUCGAAAUCGUGUCUGGAAGUGAUGUUUCCAU [theeternabot_sameState_KL_FMN_A_32]	111
UUUAAAUAUAGUGAUGUUAUAUAACAAUGACGAGGACCGGUACGGCCGCCACUCGAGAGAGAUAAUGGUCAUGCAAAUGUAUGUC [#15 K4 Tryptophan A Same State]	674
CGUGAUGUAUGGCGGUUUGUCACUUAGGAUCAGGAUAUAUAAACAAAUAGAAGGGAUGGCGGAGUGAUGUUCCGCCGGCCGCCAU [FMN A Exl V8]	173
GGGUUUGACGGAGGAUAUGCACUGAGGAGGAGAAUAUAGUGAUGUUAUAUAAGAGGAAGGAGAAGAGUAGAAGGCCGUUGGGUUU [SSFMNB.L]	124
CGUUCCUCUGUCGAUACCAGCUUCAGUUGGCGGCCAGUGAUGUUGGUAUCGCCGAUGCCAAGCCCUUGGCAGCGACAGGAGACCC [Usleanza]	155
ACUAGUUAAUCGGCCGCCACUUCUAGUGAUGUUAGAAUUAUCCAGAUUAUCAGCGUAGCACAUUGAAGGACCGGGAUAAGGUGGU [theeternabot_exclusion_KL_Trp_B_2]	275
GGUAGCAUGGCGGCCGCCACUCUUCAUUAGUGAUGUUAAUGCCGAGUGCGCUAACUCCAACAGGAGAGGACCGGGCCAUGCUACC	532
GUAAGACCGGGACUCCAGUGAUGUUGGAGGCAGGAUAUCCAGUCGAGGAGAAGGGCCAGGGAUAUCGAGCUGCUCGGUUCGUAGU [Rerareatra]	81.8
ACGACGCAUAGUGAUACCAGCACAAUAUGAGUGAUGUUCAACAUAUAAAUGUAAUAAUUAUGCCCUUGGCAGCACUAUGCGUCAG [KL-SSTheoB1]	658

Same assay, conditions: Eterna round: R107; input ligand: arginine 13.2 mM

Sequence	apparent KD of K4 kissing-loop reporter [nM]
CUGACGCUGAUACGGUGGCCGCUGGUCGUGCGAGGACCGGUACGGCCGCCACUCGCAUGAGUGAUGUUCAUGUGUCGUCGUCGUC [#07 K4 Tryptophan A Exclusion]	108
CAACAGCUUACGGCCGCCACUCCUUUAUAUGGUGCGCACCGUUGAGCUCUAGUGAUGUUGGUGCCGAGGACCGGGUAGGAAAGUA [theeternabot_sameState_KL_Trp_B_31]	245
CUUGAUGGAAACAUCGAGUAUUUCACUGAUACCAGUAUCGAUAGAUACCCUUGGCAGCAGGAUCAGUGUUUACGAGUGAUGUUCG [Ex Theophylline A K4 9]	408
AAACAUUGGUCUGAUACCAGCUGAUCGGAAACGAUCUUGCUGGAGUGAUGUUCCAAGUAAAGCCCUUGGCAGCAGACCGAUGAAA [MAT - Same State Theophlline B - Mod of Eli - D19]	53.3
GGUCGCCUGAGCAGUGAUGUUGCAAGGGAAGGAGCGCGUUUUUUCGCAGGUAGGUCGCCCAAAUAAUAAGUUAAACUAGGCGACC [4.)]	144
AAAUAGAUCAGUCAUCCAGUGAUGUUGGAAGGAGCGUGCGAAAGCACAGGUAGGUCGCCGAAAUAAAAGUGGCUGAUCAAAAUAA	216
CCAGUGAUAAACGAUACCAGAAAUACCUUAUUUGGCCGGCGGAGUGAUGUUCCUAAUACUUUCCCUUGGCAGCGUCGAAUGCUAG [theeternabot_sameState_KL_Theo_B_16]	61.1
GUUUGGCGGACGGCCGCCACUCGGACGAGUCACAGUGAUGUUGUGGUUUGCCAGUCGACUUCAUCGAGGACCGGGUUUGUCGGGC [Exclusion Tryptophan B GF 20]	276
GUAUAUCGAACUGAUACCAGAGAAUAUAGCAGUGAUGUUGCAUAUAUGAAUAAGACUCGACUCCCUUGGCAGCGGGAAGAUAUAC [On purpose 2]	169
AGUUAUGUUGCGGCCGCCACUGCGCGAGUGAUGUUCGUGGCAUAUAUAAUGUUAUAUAUGCAUCACAGGACCGGGCGGCAUAGCG [Same State - Tryptophan B]	313
